These results are taken from paper PMC6241527 (Science (New York, N.Y.), 2018).

Assay [1] deals with T1, influenza B hemagglutinin (B/Brisbane/60/08) (influenza B virus (B/Brisbane/60/08), N-linked glycans at N301 and N330 (HA1)).
T1 chain 1: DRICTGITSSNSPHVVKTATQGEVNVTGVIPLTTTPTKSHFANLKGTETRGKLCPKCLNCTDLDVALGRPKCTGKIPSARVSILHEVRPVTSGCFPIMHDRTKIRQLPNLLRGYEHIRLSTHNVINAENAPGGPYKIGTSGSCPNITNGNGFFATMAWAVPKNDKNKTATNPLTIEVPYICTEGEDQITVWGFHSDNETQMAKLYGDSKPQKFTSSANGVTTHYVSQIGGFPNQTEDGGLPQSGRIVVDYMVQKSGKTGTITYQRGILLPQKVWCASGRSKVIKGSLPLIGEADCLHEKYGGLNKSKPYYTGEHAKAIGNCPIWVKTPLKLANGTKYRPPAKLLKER
T1 chain 2: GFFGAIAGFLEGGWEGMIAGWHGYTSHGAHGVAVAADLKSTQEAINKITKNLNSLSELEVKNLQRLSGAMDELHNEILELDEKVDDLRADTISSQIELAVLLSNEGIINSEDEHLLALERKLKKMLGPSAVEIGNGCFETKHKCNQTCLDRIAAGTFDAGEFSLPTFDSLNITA
The assay is described as follows: crystal structure.

Assay [2] concerns the target T2, H1 hemagglutinin (A/Solomon Islands/3/06) (influenza A virus (A/Solomon …)).
T2 chain 1: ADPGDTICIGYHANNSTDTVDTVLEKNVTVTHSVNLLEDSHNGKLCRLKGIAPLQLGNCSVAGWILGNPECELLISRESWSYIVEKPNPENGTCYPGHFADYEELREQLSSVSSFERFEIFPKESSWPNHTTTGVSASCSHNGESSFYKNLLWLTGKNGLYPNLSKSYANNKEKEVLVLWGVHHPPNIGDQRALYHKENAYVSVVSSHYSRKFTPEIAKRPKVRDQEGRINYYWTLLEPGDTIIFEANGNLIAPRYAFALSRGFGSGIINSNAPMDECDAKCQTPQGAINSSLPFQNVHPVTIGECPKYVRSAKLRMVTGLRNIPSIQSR
T2 chain 2: not shown
The assay is described as follows: crystal structure.

For assay [3], the target named is T3, H1 hemagglutinin (A/Brisbane/59/07) (Influenza A virus …). The assay is described as follows: cell-based or functional assay.
Assay [4] has as its target T3, H1 hemagglutinin (A/Brisbane/59/07).

Some results are limits rather than exact numbers.

B1: single-domain antibody SD83 (VHH)
VHH: EVQLVESGGGLVQPGGSLRLSCAATGFTLENKAIGWFRQTPGSEREGVLCISKSGSWTYYTDSMRGRFTISRDNAENTVYLQMDSLKPEDTAVYYCATTTAGGGLCWDGTTFSRLASSWGQGTQVTVSS
In the case of B1, in assay [1], the “stoichiometry N” value is 3 sdAbs per HA trimer.

B2: single-domain antibody SD38 (VHH)
VHH: EVQLVESGGGLVQPGGSLRLSCAVSISIFDIYAMDWYRQAPGKQRDLVATSFRDGSTNYADSVKGRFTISRDNAKNTLYLQMNSLKPEDTAVYLCHVSLYRDPLGVAGGMGVYWGKGALVTVSS
As for B2, in assay [2], the “stoichiometry N” value came to 3 sdAbs per HA trimer.

B3: single-domain antibody SD36 (VHH)
VHH: EVQLVESGGGLVQAGGSLKLSCAASGRTYAMGWFRQAPGKEREFVAHINALGTRTYYSDSVKGRFTISRDNAKNTEYLEMNNLKPEDTAVYYCTAQGQWRAAPVAVAAEYEFWGQGTQVTVSS
For B3, the “in vitro neutralisation of the corresponding virus (A/Brisbane/59/07), IC50” value in assay [3] was over 1000 nM. In assay [4], this molecule returned a Kd of 290 nM.

The term stoichiometry N denotes the number of molecules, sites or subunits per partner or assembly. In general, Kd refers to the equilibrium constant for the complex coming apart. Read a high Kd as a looser complex.
